Experimental data: patent publication US20140148387A1

Columns and labels:
[1] = target: T1, activine type IIB receptor (ActRIIB) extracellular domain; assay: SPR, BIAcore 2000; analyte Ala-BMP-2, ligand ActRIIBecd; freeze-dried preparation preserved at 5 ± 3° C. for 3 months
T1 sequence (Q13705 19-137, species assumed, looked up): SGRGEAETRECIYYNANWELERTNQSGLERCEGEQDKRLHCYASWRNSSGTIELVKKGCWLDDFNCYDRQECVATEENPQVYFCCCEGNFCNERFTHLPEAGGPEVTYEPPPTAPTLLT

[2] = target: T1, activine type IIB receptor (ActRIIB) extracellular domain; assay: SPR, BIAcore 2000; analyte Ala-BMP-2, ligand ActRIIBecd; redissolved freeze-dried preparation at start of test
[3] = target: T1, activine type IIB receptor (ActRIIB) extracellular domain; assay: SPR, BIAcore 2000; analyte Ala-BMP-2, ligand ActRIIBecd; freeze-dried preparation preserved at 40 ± 2° C., relative humidity 75 ± 5%, for 3 months
[4] = target: T1, activine type IIB receptor (ActRIIB) extracellular domain; assay: SPR, BIAcore 2000; analyte Ala-BMP-2, ligand ActRIIBecd; freeze-dried preparation preserved at 25 ± 2° C., relative humidity 60 ± 5%, for 3 months

B1: active type human bone morphogenetic protein-2 homodimer added with an alanine residue to the N-terminus (ligand)
chain: AQAKHKQRKRLKSSCKRHPLYVDFSDVGWNDWIVAPPGYHAFYCHGECPFPLADHLNSTNHAIVQTLVNSVNSKIPKACCVPTELSAISMLYLDENEKVVLKNYQDMVVEGCGCR
Biacore assay, relative value to provisional reference substance of Ala-BMP-2 as 100% [1]: 100%
Biacore assay, relative value to provisional reference substance of Ala-BMP-2 as 100% [2]: 98.2%
Biacore assay, relative value to provisional reference substance of Ala-BMP-2 as 100% [3]: 97.7%
Biacore assay, relative value to provisional reference substance of Ala-BMP-2 as 100% [4]: 98.9%
